B1: VcDnaB, replicative helicase DnaB from Vibrio cholerae (enzyme)
chain: MADPRTDNRNRKIPDAQVDAIKVPPHSLEAEQSVIGGLLLDNERWDTVSEHVMTQDFYSRPHRLIFDGVKSILEAGKPLDLITLSEYLEQREQLEDVGGFAYLADLAKNTPSAANINAYAEIVAERALVRNLIGVANEIADAGYDPQGRNAEDLLDLAESKVFAIAEARTSENEGPKNVDSILERTLERIELLYKTPQDGVTGVNTGFTDLNKKTAGLQGSDLIIVAARPSMGKTTFAMNLCENAAMEQDKPVLIFSLEMPAEQIMMRMLASLSRVDQTKIRTGQLDDEDWARISSTMGILMEKKNMYIDDSSGLTPTEVRSRARRIAREHGGLSLIMVDYLQLMRVPALTDNRTLEIAEISRSLKALAKELNVPVVALSQLNRSLEQRADKRPVNSDLRESGSIEQDADLIMFIYRDEVYHPDSPLKGTAEIIIGKQRNGPIGSVRLTFQGHYSRFDNYAGPAFDDE
notes: DnaB replicative helicase, Vibrio cholerae; seen as full-length protein without proteolysis on SDS-PAGE of the crystals; NTD 22-175 and CTD 200-461 of PDB 6t66 were the search models
B2: EcDnaC, helicase loader DnaC from Escherichia coli (natural protein)
chain: MKNVGDLMQRLQKMMPAHIKPAFKTGEELLAWQKEQGAIRSAALERENRAMKMQRTFNRSGIRPLHQNCSFENYRVECEGQMNALSKARQYVEEFDGNIASFIFSGKPGTGKNHLAAAICNELLLRGKSVLIITVADIMSAMKDTFRNSGTSEEQLLNDLSNVDLLVIDEIGVQTESKYEKVIINQIVDRRSSSKRPTGMLTNSNMEEMTKLLGERVMDRMRLGNSLWVIFNWDSYRSRVTGKEY
notes: DnaC helicase loader, Escherichia coli; source: overexpressed in E. coli, purified as described in Marsin et al. (2021)

Legend:
[1] = biological target: the molecule itself; assay: crystal structure; VcDnaB (0.115 mM monomer) pre-incubated with 2 mM ADP and 5 mM MgCl2, VcDciA added to 0.138 mM; crystals at 18°C in 0.1 M sodium acetate pH 4.8-5.6, 0.7-0.9 M potassium/sodium tartrate; 2.9 Å
[2] = biological target: B1; assay: intrinsic fluorescence variation along a thermal ramp (Tycho NT.6 nano-DSF); 20 µM of each protein in 50 mM HEPES pH 7.5, 150 mM NaCl, 1 mM ATP; 350/330 nm ratio, 35 to 95°C, compared with the ratio predicted in the absence of interaction; three to five replicates; conditions: both partners purified

Binder | binding result [1] | binding result [2]
B1 | binds | –
B2 | – | binds
